The target in this assay is T1, recombinant influenza A virus nucleoprotein (A/WSN/1933) (influenza A virus (A/WSN/1933)), P15682.
T1 chain: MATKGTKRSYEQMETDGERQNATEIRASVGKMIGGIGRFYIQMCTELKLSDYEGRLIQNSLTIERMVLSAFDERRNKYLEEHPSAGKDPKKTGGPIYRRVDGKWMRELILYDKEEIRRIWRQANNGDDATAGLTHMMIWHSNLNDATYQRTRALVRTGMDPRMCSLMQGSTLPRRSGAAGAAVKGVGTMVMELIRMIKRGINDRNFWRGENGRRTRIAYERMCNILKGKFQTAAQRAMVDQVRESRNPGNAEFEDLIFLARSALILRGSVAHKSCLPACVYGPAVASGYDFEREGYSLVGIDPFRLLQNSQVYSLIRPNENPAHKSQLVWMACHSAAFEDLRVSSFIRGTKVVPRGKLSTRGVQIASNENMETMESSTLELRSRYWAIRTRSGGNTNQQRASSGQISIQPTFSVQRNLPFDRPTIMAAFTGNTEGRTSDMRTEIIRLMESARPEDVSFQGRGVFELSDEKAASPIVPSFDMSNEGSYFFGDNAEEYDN
Nature of the assay: negative staining EM; freshly assembled RNP-like mixture (NP with 12-nt RNA) diluted to 0.05 mg/ml, 2% sodium silicotungstate pH 7.0. Conditions: remark: other sources report otherwise.

“And” between values parts separate entries of the source, which are not always exact repeats. Equal entries are not always repeated.

For orientation: stoichiometry N means a count of units in the complex or per binding partner.

B1: recombinant influenza A virus nucleoprotein (A/WSN/1933), P15682 (natural protein)
chain: MATKGTKRSYEQMETDGERQNATEIRASVGKMIGGIGRFYIQMCTELKLSDYEGRLIQNSLTIERMVLSAFDERRNKYLEEHPSAGKDPKKTGGPIYRRVDGKWMRELILYDKEEIRRIWRQANNGDDATAGLTHMMIWHSNLNDATYQRTRALVRTGMDPRMCSLMQGSTLPRRSGAAGAAVKGVGTMVMELIRMIKRGINDRNFWRGENGRRTRIAYERMCNILKGKFQTAAQRAMVDQVRESRNPGNAEFEDLIFLARSALILRGSVAHKSCLPACVYGPAVASGYDFEREGYSLVGIDPFRLLQNSQVYSLIRPNENPAHKSQLVWMACHSAAFEDLRVSSFIRGTKVVPRGKLSTRGVQIASNENMETMESSTLELRSRYWAIRTRSGGNTNQQRASSGQISIQPTFSVQRNLPFDRPTIMAAFTGNTEGRTSDMRTEIIRLMESARPEDVSFQGRGVFELSDEKAASPIVPSFDMSNEGSYFFGDNAEEYDN
As for B1, the stoichiometry N is 3 and 4.

The record behind these values is PMC10848707.
